“And” between values parts separate entries of the source, which are not always exact repeats. Equal values may be shown once.
Tests used:
[1] = target: T1, SARS-CoV-2 spike protein S on live virus, Wuhan (strain SARS-CoV-2/Canada/VIDO-01/2020) (SARS-CoV-2 (Wuhan), UniProt P0DTC2 14-1273); assay: cell-based or functional assay
[2] = target: T1, SARS-CoV-2 spike protein S on live …; assay: cell-based or functional assay; remark: listed apart in the source
[3] = target: T2, Human SARS-CoV-2_Wuhan S (SmT1) (SARS-CoV-2 (Wuhan), UniProt P0DTC2 14-1208); assay: flow cytometry SVNA, VHH-Fc vs biotin-S binding to Vero E6 ACE2
[4] = target: T2, Human SARS-CoV-2_Wuhan S (SmT1); assay: sandwich ELISA: biotin NRCoV2-02 VHH capture, antigen titrated, VHH-Fc detector
[5] = target: T3, SARS-CoV-2 S1-RBD (Wuhan) (SARS-CoV-2 (Wuhan), UniProt P0DTC2 319-541); assay: as above
T3 construct: domain: S1-RBD

[6] = target: T4, SARS-CoV-2 S1 (aa16-685) (Wuhan) (SARS-CoV-2 (Wuhan), UniProt P0DTC2 16-685); assay: as above
[7] = target: T2, Human SARS-CoV-2_Wuhan S (SmT1); assay: as above; remark: listed apart in the source
[8] = target: T3, SARS-CoV-2 S1-RBD (Wuhan); assay: as above; remark: listed apart in the source
[9] = target: T4, SARS-CoV-2 S1 (aa16-685) (Wuhan); assay: as above; remark: listed apart in the source
[10] = target: S1-Fc (SARS-CoV-2 S1 aa16-685, Wuhan, human IgG1 Fc) (SARS-CoV-2 (Wuhan); human, UniProt P0DTC2 16-685)
[11] = target: T2, Human SARS-CoV-2_Wuhan S (SmT1); assay: flow cytometry SVNA, VHH vs biotin-S binding to Vero E6 ACE2
[12] = target: T5, SARS-CoV-2 spike trimer S (Wuhan, SmT1) (SARS-CoV-2 Wuhan); assay: SPR, antigen on chip
T5 construct: extracellular domain

[13] = target: T6, SARS-CoV-2 S1 (aa16-685) (Wuhan) (SARS-CoV-2 Wuhan, UniProt P0DTC2 16-685); assay: SPR, antigen on chip
T6 construct: NRC; FLAG, 6xHis tags

[14] = target: T7, SARS-CoV-2 S2 (aa686-1208) (Wuhan) (SARS-CoV-2 Wuhan, UniProt P0DTC2 686-1208); assay: SPR, antigen on chip
T7 construct: NRC; FLAG, 6xHis tags

[15] = target: SARS-CoV-2 S1-RBD fused to human Fc (S1-RBD-Fc) (SARS-CoV-2 Wuhan; human); assay: SPR, antigen on chip
[16] = target: SARS-CoV-2 RBD (aa319-541) (Wuhan), monomeric (SARS-CoV-2 Wuhan, UniProt P0DTC2 319-541); assay: SPR, monomeric RBD over captured VHH-Fc

Binder | MN100 [1] [nM] | LVNA IC50 [2] [nM] | IC50 [3] [nM] | IC99 [3] [nM] | Imax % [3] [%] | SC50 [4] [ng/mL] | SC50 [5] [ng/mL] | SC50 [6] [ng/mL] | Limit of detection [7] [ng/mL] | Limit of detection [8] [ng/mL] | Limit of detection [9] [ng/mL] | other results
NRCoV2-1d VHH-Fc (Fc fusion, bivalent VHH-Fc) EVQLVESGGGSVQPGGSLRLSCAASGSTLDYYAIGWFRQAPGKEREWVSSVSSSDGNTLYADSVKGRFTISRDNAKNTVYLQMNSLKAEDTAVYVCAADYSMRPFAVGRWHRDYEYWGQGTQVTVSS | 0.25 | 1.94 | 5.4 | 42 | 89 | 25 | 1.7 | 16 | 1.4 | 0.15 | 1.37 | 
NRCoV2-02 VHH (VHH) VHH: EVQLVESGGGLVQAGGSLRLSCAASGFTFSNYAMNWVRQAPGKGLEWVSGISGRGDDTRYADSVKGRFTISRDNAKNTLFLQMRSLRPEDTGVYRCTKGPDLYYFGSGYSDRGQGTQVTVSS | 1.25 |  |  |  |  |  |  |  |  |  |  | EC50 [10]: 0.2 nM; IC50 [11]: 5.1 nM; IC99 [11]: 15.5 nM; Imax % [11]: 100%
NRCoV2-07 VHH-Fc (Fc fusion, bivalent VHH-Fc) QVQLVQSGGGLVQPGGSLRLSCAASGVTLDYYAIGWFRQAPGKEREAVSCISSNGRRNHYVASVRGRFTISRDNAKSTVYLQMNSLKPEDTAVYYCAAVQDVHGDNYYCTSPNEYNVWGQGTQVTVSS | 1.25 | 6.15 | 6.8 | 98.9 | 89 | 18 | 0.7 | 5 | 1.4 | 0.08 | 0.46 | 
NRCoV2-04 VHH-Fc (Fc fusion, bivalent VHH-Fc) AVQLVDSGGGLVQPGGSLRLSCAASGSPFSNVVMAWYRQAPGKQRERVAFISGGGIADYIMSVKGRFTISRDNAKNTVYLQMNSLKPEDTAVYYCWSSYESTWGQGTQVTVSS | 1.25 | 1.65 | 11.7 | 420 | 51 | 39 | 3.3 | 25 | 4.1 | 0.46 | 4.12 | 
NRCoV2-11 VHH-Fc (Fc fusion, bivalent VHH-Fc) EVQLVSSGGGLVQPGGSLRLSCAASGSSLDSYSVSWFRQAPGKEREWISFISRYYSSTYYTDSVKGRFTTSRDGDQKTVHLQMNSLKPEDTAVYYCAARSRDFSSPFSATDTYTSWGQGTQVTVSS |  | 9.9 | 9.7 | 99.8 | 63 | 20 | 0.8 | 6 | 1.4 | 0.08 | 0.46 | 
NRCoV2-07 VHH (VHH) VHH: QVQLVQSGGGLVQPGGSLRLSCAASGVTLDYYAIGWFRQAPGKEREAVSCISSNGRRNHYVASVRGRFTISRDNAKSTVYLQMNSLKPEDTAVYYCAAVQDVHGDNYYCTSPNEYNVWGQGTQVTVSS |  |  |  |  |  |  |  |  |  |  |  | EC50 [10]: 1.1 nM and 1 nM; IC50 [11]: 7.5 nM; IC99 [11]: 65.3 nM; Imax % [11]: 86%
NRCoV2-MRed04 VHH (VHH) VHH: EVQLVESGGGLVQPGRSLRLSCAASGNSFSISTMGWFRQAPGKERELVASIWSDTTTSYADSVKGRFTISTDNTRTKVYLQMSSLNPEDTAVYYCAADRGFVVRGQYDYWGQGTQVTVSS |  |  |  |  |  |  |  |  |  |  |  | Kd [12]: 1.09 nM; koff [12]: 0.0015 s⁻¹; kon [12]: 1.39e+06 M⁻¹ s⁻¹; Kd [13]: 1.68 nM; koff [13]: 0.00183 s⁻¹; kon [13]: 1.09e+06 M⁻¹ s⁻¹; binding result [14]: no binding; Kd [15]: 2.06 nM; koff [15]: 0.00176 s⁻¹; kon [15]: 855000 M⁻¹ s⁻¹
NRCoV2-MRed05 VHH-Fc (Fc fusion, bivalent) EVQLVESGGGLVQPGGSLRLSCAASGFTLDYYAIGWFRQAPGKEREGVSCISSSDGSTLYADSVKGRFTISRDNAKNTVYLQMNSLKPEDTAVYYCATGPQAYYSGSYYFQCPQAGMDYWGKGTQVTVSS |  |  |  |  |  |  |  |  |  |  |  | Kd [16]: 0.763 nM; koff [16]: 0.000496 s⁻¹; kon [16]: 650000 M⁻¹ s⁻¹

Reference: patent US20240270826A1 (NATIONAL RESEARCH COUNCIL OF CANADA, published 2024)
